Assay results taken from the supplement of paper PMC9112550, “Optimization of the antimicrobial peptide Bac7 by deep mutational scanning” (BMC Biology, 2022).

Tested on: Escherichia coli TOP10
Assay: shrunken log2 fold change of peptide-encoding DNA abundance (4.5 h post-induction vs induction); higher = less antimicrobial activity (less host growth inhibition)
Settings: time post-induction: 4.5 h; library: site-saturation at positions 5, 18, 19, 20
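Further: peptides expressed intracellularly from a pBAD plasmid library in pooled LB shake-flask culture, induced with 0.3% L-arabinose, DNA abundance read by NGS, three biological replicates, DESeq2 with apeglm shrinkage.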

Sequence	shrunken log2 fold change
RRIRERPPRLPRPRPRPTNDPRP	0.127
RRIRERPPRLPRPRPRPTNRPRP	-0.242
RRIRERPPRLPRPRPRPTPLPRP	0.0281
RRIRERPPRLPRPRPRPTRNPRP	0.22
RRIRERPPRLPRPRPRPTSMPRP	-0.713
RRIRERPPRLPRPRPRPTVMPRP	-0.193
RRIRERPPRLPRPRPRPTWVPRP	0.138
RRIRERPPRLPRPRPRPVALPRP	-0.377
RRIRERPPRLPRPRPRPVATPRP	0.124
RRIRERPPRLPRPRPRPVDTPRP	0.000639
RRIRERPPRLPRPRPRPVDYPRP	0.0839
RRIRERPPRLPRPRPRPVENPRP	-0.0218
RRIRERPPRLPRPRPRPVESPRP	-0.0262
RRIRERPPRLPRPRPRPVHVPRP	-0.389
RRIRERPPRLPRPRPRPVLQPRP	-0.347
RRIRERPPRLPRPRPRPVMKPRP	-0.236
RRIRERPPRLPRPRPRPVMSPRP	0.0484
RRIRERPPRLPRPRPRPVPCPRP	-0.193
RRIRERPPRLPRPRPRPVPGPRP	0.186
RRIRERPPRLPRPRPRPVQHPRP	-0.402
RRIRERPPRLPRPRPRPVRCPRP	0.162
RRIRERPPRLPRPRPRPVRFPRP	0.431
RRIRERPPRLPRPRPRPVRIPRP	-0.0343
RRIRERPPRLPRPRPRPVRMPRP	0.11
RRIRERPPRLPRPRPRPVSGPRP	0.386

Sequence	shrunken log2 fold change
RRIRERPPRLPRPRPRPVSNPRP	-1.12
RRIRERPPRLPRPRPRPVVAPRP	0.182
RRIRERPPRLPRPRPRPVWQPRP	0.123
RRIRERPPRLPRPRPRPVYKPRP	-0.348
RRIRERPPRLPRPRPRPWAAPRP	-0.101
RRIRERPPRLPRPRPRPWAGPRP	-0.208
RRIRERPPRLPRPRPRPWARPRP	-0.0915
RRIRERPPRLPRPRPRPWCTPRP	-0.391
RRIRERPPRLPRPRPRPWCYPRP	-0.947
RRIRERPPRLPRPRPRPWDCPRP	-0.0136
RRIRERPPRLPRPRPRPWDRPRP	-0.146
RRIRERPPRLPRPRPRPWEWPRP	0.0992
RRIRERPPRLPRPRPRPWFCPRP	-0.375
RRIRERPPRLPRPRPRPWFLPRP	-0.628
RRIRERPPRLPRPRPRPWGNPRP	-0.377
RRIRERPPRLPRPRPRPWGVPRP	-0.284
RRIRERPPRLPRPRPRPWLCPRP	-0.0006
RRIRERPPRLPRPRPRPWMYPRP	-0.508
RRIRERPPRLPRPRPRPWNIPRP	-0.308
RRIRERPPRLPRPRPRPWNLPRP	-0.00195
RRIRERPPRLPRPRPRPWRCPRP	-0.0332
RRIRERPPRLPRPRPRPWRPPRP	0.0707
RRIRERPPRLPRPRPRPWRQPRP	-0.00951
RRIRERPPRLPRPRPRPWTGPRP	-0.00968
RRIRERPPRLPRPRPRPWTMPRP	0.0606

Sequence	shrunken log2 fold change
RRIRERPPRLPRPRPRPWVDPRP	-0.665
RRIRERPPRLPRPRPRPWVIPRP	0.0392
RRIRERPPRLPRPRPRPYAAPRP	-0.368
RRIRERPPRLPRPRPRPYAIPRP	-0.52
RRIRERPPRLPRPRPRPYAKPRP	-0.329
RRIRERPPRLPRPRPRPYAVPRP	-0.441
RRIRERPPRLPRPRPRPYCHPRP	-0.467
RRIRERPPRLPRPRPRPYCQPRP	-0.0159
RRIRERPPRLPRPRPRPYCVPRP	-0.165
RRIRERPPRLPRPRPRPYDCPRP	-0.0948
RRIRERPPRLPRPRPRPYEWPRP	-0.00963
RRIRERPPRLPRPRPRPYFEPRP	-0.696
RRIRERPPRLPRPRPRPYGYPRP	-0.0695
RRIRERPPRLPRPRPRPYHQPRP	-0.416
RRIRERPPRLPRPRPRPYHRPRP	0.00148
RRIRERPPRLPRPRPRPYKLPRP	-1.4
RRIRERPPRLPRPRPRPYLYPRP	-0.927
RRIRERPPRLPRPRPRPYMDPRP	-0.534
RRIRERPPRLPRPRPRPYMEPRP	0.0111
RRIRERPPRLPRPRPRPYMTPRP	-0.124
RRIRERPPRLPRPRPRPYMYPRP	-0.501
RRIRERPPRLPRPRPRPYPKPRP	-0.405
RRIRERPPRLPRPRPRPYPRPRP	-0.00133
RRIRERPPRLPRPRPRPYQPPRP	0.0223
RRIRERPPRLPRPRPRPYSRPRP	-0.195

Sequence	shrunken log2 fold change
RRIRERPPRLPRPRPRPYVFPRP	-0.575
RRIRERPPRLPRPRPRPYYTPRP	-0.116
RRIRERPPRLPRPRPRPYYYPRP	-0.732
RRIRFRPPRLPRPRPRPAAGPRP	0.333
RRIRFRPPRLPRPRPRPAARPRP	0.192
RRIRFRPPRLPRPRPRPAASPRP	0.0986
RRIRFRPPRLPRPRPRPACIPRP	-0.397
RRIRFRPPRLPRPRPRPACTPRP	-0.148
RRIRFRPPRLPRPRPRPADMPRP	-0.155
RRIRFRPPRLPRPRPRPADNPRP	0.0503
RRIRFRPPRLPRPRPRPADTPRP	-0.109
RRIRFRPPRLPRPRPRPAEKPRP	-0.0885
RRIRFRPPRLPRPRPRPAFCPRP	0.0477
RRIRFRPPRLPRPRPRPAFQPRP	0.243
RRIRFRPPRLPRPRPRPAFWPRP	0.516
RRIRFRPPRLPRPRPRPAGVPRP	0.172
RRIRFRPPRLPRPRPRPAHEPRP	0.0902
RRIRFRPPRLPRPRPRPAHHPRP	-0.152
RRIRFRPPRLPRPRPRPAIGPRP	-0.0142
RRIRFRPPRLPRPRPRPAIVPRP	-0.0488
RRIRFRPPRLPRPRPRPAKDPRP	0.255
RRIRFRPPRLPRPRPRPAKWPRP	0.0975
RRIRFRPPRLPRPRPRPALIPRP	-0.00983
RRIRFRPPRLPRPRPRPAMCPRP	-0.596
RRIRFRPPRLPRPRPRPAMDPRP	-0.0614

Sequence	shrunken log2 fold change
RRIRFRPPRLPRPRPRPAMGPRP	0.119
RRIRFRPPRLPRPRPRPAMTPRP	0.00388
RRIRFRPPRLPRPRPRPANCPRP	-0.211
RRIRFRPPRLPRPRPRPAPDPRP	0.323
RRIRFRPPRLPRPRPRPAPSPRP	0.607
RRIRFRPPRLPRPRPRPAPTPRP	0.912
RRIRFRPPRLPRPRPRPARDPRP	0.732
RRIRFRPPRLPRPRPRPARHPRP	0.262
RRIRFRPPRLPRPRPRPARKPRP	0.294
RRIRFRPPRLPRPRPRPATAPRP	0.106
RRIRFRPPRLPRPRPRPATKPRP	0.217
RRIRFRPPRLPRPRPRPAVGPRP	0.591
RRIRFRPPRLPRPRPRPAWDPRP	0.0926
RRIRFRPPRLPRPRPRPAWTPRP	-0.0896
RRIRFRPPRLPRPRPRPAYEPRP	0.0737
RRIRFRPPRLPRPRPRPCDHPRP	-0.0275
RRIRFRPPRLPRPRPRPCDSPRP	-0.0928
RRIRFRPPRLPRPRPRPCEMPRP	0.0297
RRIRFRPPRLPRPRPRPCEPPRP	0.0391
RRIRFRPPRLPRPRPRPCFHPRP	-0.894
RRIRFRPPRLPRPRPRPCGIPRP	-0.168
RRIRFRPPRLPRPRPRPCHTPRP	-0.17
RRIRFRPPRLPRPRPRPCHWPRP	-0.127
RRIRFRPPRLPRPRPRPCIRPRP	-0.0335
RRIRFRPPRLPRPRPRPCITPRP	-0.709

Sequence	shrunken log2 fold change
RRIRFRPPRLPRPRPRPCKFPRP	-0.0298
RRIRFRPPRLPRPRPRPCKWPRP	-0.0168
RRIRFRPPRLPRPRPRPCLCPRP	-0.0404
RRIRFRPPRLPRPRPRPCLFPRP	-0.264
RRIRFRPPRLPRPRPRPCLGPRP	-0.201
RRIRFRPPRLPRPRPRPCLPPRP	-0.783
RRIRFRPPRLPRPRPRPCPIPRP	-0.488
RRIRFRPPRLPRPRPRPCPMPRP	-0.00789
RRIRFRPPRLPRPRPRPCRKPRP	0.0312
RRIRFRPPRLPRPRPRPCRLPRP	-0.209
RRIRFRPPRLPRPRPRPCSDPRP	-0.119
RRIRFRPPRLPRPRPRPCTAPRP	-0.487
RRIRFRPPRLPRPRPRPCTDPRP	-0.183
RRIRFRPPRLPRPRPRPCVEPRP	-0.267
RRIRFRPPRLPRPRPRPCVSPRP	-0.0323
RRIRFRPPRLPRPRPRPCYCPRP	-0.064
RRIRFRPPRLPRPRPRPCYNPRP	-0.255
RRIRFRPPRLPRPRPRPCYRPRP	-0.573
RRIRFRPPRLPRPRPRPCYYPRP	-0.401
RRIRFRPPRLPRPRPRPDAEPRP	0.373
RRIRFRPPRLPRPRPRPDAIPRP	0.041
RRIRFRPPRLPRPRPRPDAPPRP	0.421
RRIRFRPPRLPRPRPRPDDAPRP	0.133
RRIRFRPPRLPRPRPRPDDEPRP	0.066
RRIRFRPPRLPRPRPRPDDQPRP	-0.151
